Laboratory results reported in paper PMC2946090 (Nature, 2010).

Target: the molecule itself
Experiment: crystal structure

B1: CusA efflux pump (full-length CusA membrane protein with a 6xHis tag at the N-terminus) (natural protein, E. coli, UniProt P38054 1-1047, looked up)
chain: MIEWIIRRSVANRFLVLMGALFLSIWGTWTIINTPVDALPDLSDVQVIIKTSYPGQAPQIVENQVTYPLTTTMLSVPGAKTVRGFSQFGDSYVYVIFEDGTDPYWARSRVLEYLNQVQGKLPAGVSAELGPDATGVGWIYEYALVDRSGKHDLADLRSLQDWFLKYELKTIPDVAEVASVGGVVKEYQVVIDPQRLAQYGISLAEVKSALDASNQEAGGSSIELAEAEYMVRASGYLQTLDDFNHIVLKASENGVPVYLRDVAKVQIGPEMRRGIAELNGEGEVAGGVVILRSGKNAREVIAAVKDKLETLKSSLPEGVEIVTTYDRSQLIDRAIDNLSGKLLEEFIVVAVVCALFLWHVRSALVAIISLPLGLCIAFIVMHFQGLNANIMSLGGIAIAVGAMVDAAIVMIENAHKRLEEWQHQHPDATLDNKTRWQVITDASVEVGPALFISLLIITLSFIPIFTLEGQEGRLFGPLAFTKTYAMAGAALLAIVVIPILMGYWIRGKIPPESSNPLNRFLIRVYHPLLLKVLHWPKTTLLVAALSVLTVLWPLNKVGGEFLPQINEGDLLYMPSTLPGISAAEAASMLQKTDKLIMSVPEVARVFGKTGKAETATDSAPLEMVETTIQLKPQEQWRPGMTMDKIIEELDNTVRLPGLANLWVPPIRNRIDMLSTGIKSPIGIKVSGTVLADIDAMAEQIEEVARTVPGVASALAERLEGGRYINVEINREKAARYGMTVADVQLFVTSAVGGAMVGETVEGIARYPINLRYPQSWRDSPQALRQLPILTPMKQQITLADVADIKVSTGPSMLKTENARPTSWIYIDARDRDMVSVVHDLQKAIAEKVQLKPGTSVAFSGQFELLERANHKLKLMVPMTLMIIFVLLYLAFRRVGEALLIISSVPFALVGGIWLLWWMGFHLSVATGTGFIALAGVAAEFGVVMLMYLRHAIEAVPSLNNPQTFSEQKLDEALYHGAVLRVRPKAMTVAVIIAGLLPILWGTGAGSEVMSRIAAPMIGGMITAPLLSLFIIPAAYKLMWLHRHRVRK
stoichiometry N: 3
